Measured values published in US20160017049A1 (Genentech, published 2016).

T1: huGPC(aa359-559) (human, UniProt P51654 359-559)
T1 construct: Expressed on the surface of 293 cells
T1 sequence: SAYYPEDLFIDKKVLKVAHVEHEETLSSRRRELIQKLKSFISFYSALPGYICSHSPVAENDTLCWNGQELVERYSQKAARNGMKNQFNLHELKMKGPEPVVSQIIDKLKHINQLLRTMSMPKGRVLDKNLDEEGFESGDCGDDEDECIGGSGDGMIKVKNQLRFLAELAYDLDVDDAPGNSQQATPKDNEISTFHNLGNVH

T2: huGPC(aa359-509) (HSV; human)
T2 construct: Expressed on the surface of 293 cells; not shown: C-terminal glycophosphatidylinositol anchor (GPI link)
T2 chain: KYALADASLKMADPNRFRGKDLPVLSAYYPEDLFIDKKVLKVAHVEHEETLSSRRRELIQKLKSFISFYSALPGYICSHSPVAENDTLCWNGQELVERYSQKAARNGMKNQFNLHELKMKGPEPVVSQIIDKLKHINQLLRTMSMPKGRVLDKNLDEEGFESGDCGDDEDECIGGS

T3: human GPC3 C-terminal fragment, amino acids 359 to 560, with GPI link (human, UniProt P51654 359-560)
T3 construct: also called huGPC(aa359-560); not shown: C-terminal glycophosphatidylinositol anchor (GPI link)
T3 sequence: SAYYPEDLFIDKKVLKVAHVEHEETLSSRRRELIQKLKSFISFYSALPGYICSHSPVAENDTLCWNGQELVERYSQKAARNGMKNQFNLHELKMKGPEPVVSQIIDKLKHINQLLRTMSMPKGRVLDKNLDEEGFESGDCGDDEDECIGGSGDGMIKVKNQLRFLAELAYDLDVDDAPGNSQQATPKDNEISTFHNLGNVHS

T4: huGPC(aa359-470) (HSV; human)
T4 construct: Expressed on the surface of 293 cells; not shown: C-terminal glycophosphatidylinositol anchor (GPI link)
T4 chain: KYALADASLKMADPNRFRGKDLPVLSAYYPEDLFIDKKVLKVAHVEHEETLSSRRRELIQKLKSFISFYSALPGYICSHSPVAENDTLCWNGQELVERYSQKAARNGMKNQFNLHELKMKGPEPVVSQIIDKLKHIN

B1: antibody 4A11 (antibody, human IgG1, kappa)
heavy: not shown
light: DIVMTQSPSSMYASLGERVTITCKASQDINSYLSWFQQKPGKSPKTLIYRVNRLVDGVPSRFSGSGSGQDYSLTISSLEYEDVGIYYCLQYDEFPLTLGAGTKLELKRTVAAPSVFIFPPSDEQLKSGTASVVCLLNNFYPREAKVQWKVDNALQSGNSQESVTEQDSKDSTYSLSSTLTLSKADYEKHKVYACEVTHQGLSSPVTKSFNRGEC
notes: also called 4A11 thio-HC A118C
B2: antibody 7H1 (antibody, V domains shown)
VH: QVQLQQSGPELVKPGASVKISCKASGYTFTDYYINWVKQKPGQGLEWIGWIYPGSGHTECNETFKGKATLTVDTSSSTAYMQLSSLTSEDTAVYFCTRGYYAPMGYFDYWGQGTTLTVSS
VL: DIQMTQSPSSLSASLGERVSLTCRASQEISGYLSWLQQKPDGTIKRLIYAASTLDSGVPKRFSGSRSGSDYSLTISGLESEDFADYYCLQYASYPYTFGGGTKLEIK
notes: Mouse monoclonal from Balb/c mice immunised with huGPC3 ECD-Flag
B3: antibody 4G7 (antibody, V domains shown)
VH: EVQLQQSGTVLARPGASVKMSCKASGYTFTSYWVHWVKQRPGQGLEWIGAIYPGNIDASYNQKFKGKAKLTAVTSTSTAYMELSSLTNEDSAVYYCSYDYDAWFVYWGQGTLVTVSA
VL: DIQMTQSHKFMSTSVGDRVSITCKASQDVSTAVAWYQQKPGQSPTLLIYSASYRYTGVPDRFTGSGSGTDFTFTISSVQAEDLAVYYCQQHYFTPRTFGGGTKLELK
B4: antibody 15G1 (antibody, human IgG1, kappa, V domains shown)
VH: EVQLLETGGGLVQPGGSRGLSCEGSGFTFSGFWMSWVRQTPGKTLEWIGDINSDGSSINYAPSIKDRFTIFRDNDKSILYLQMTNVRSEDTGTYFCVTTYGDYWGQGTTLTVSS
VL: DIVMTQSQKFMSTSVGDRVSVTCKASQNVGSHVGWYQQKSGQSPKALIYSASNRYIGVPDRFTGSGSGTDFTLTISNVQSEDLAEYFCQQYHIYPYTFGGGTRLEIKR
notes: also called 15G1 thio-HC A118C

Key:
huGPC(aa359-559) = target: T1, huGPC(aa359-559); experiment: FACS on 293 cells expressing the gD-tagged fragment
Protocol: (§1) C-terminal truncation constructs of huGPC(aa359-589) were made to further refine the epitopes for antibodies 4A11 and 15G1. […] The three C-terminal truncations each comprised an HSV N-terminal signal sequence (SS) and gD sequence (SEQ ID NO: 41) and C-terminal glycophosphatidylinositol anchor (GPI link). The huGPC truncation constructs were expressed on the surface of 293 cells and antibody binding was determined by FACS. An anti-gD was used as a positive control. Vector-transfected 293 cells were used as a negative control.

huGPC(aa359-509) = target: T2, huGPC(aa359-509); experiment: as above
Protocol: as §1

[1] = target: T5, human GPC3 C-terminal truncation, amino acids 25 to 137, with GPI link (human, UniProt P51654 25-137); experiment: Western blot probed with 7H1, lysate of transiently transfected cells
T5 construct: not shown: C-terminal glycophosphatidylinositol anchor (GPI link)
T5 sequence (P51654 25-137): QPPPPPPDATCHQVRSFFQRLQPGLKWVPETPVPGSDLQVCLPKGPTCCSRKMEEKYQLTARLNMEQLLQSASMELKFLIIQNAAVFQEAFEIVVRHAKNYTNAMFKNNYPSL

[2] = target: T6, human GPC3 C-terminal truncation, amino acids 25 to 247, with GPI link (human, UniProt P51654 25-247); experiment: as above
T6 construct: not shown: C-terminal glycophosphatidylinositol anchor (GPI link)
T6 sequence (P51654 25-247): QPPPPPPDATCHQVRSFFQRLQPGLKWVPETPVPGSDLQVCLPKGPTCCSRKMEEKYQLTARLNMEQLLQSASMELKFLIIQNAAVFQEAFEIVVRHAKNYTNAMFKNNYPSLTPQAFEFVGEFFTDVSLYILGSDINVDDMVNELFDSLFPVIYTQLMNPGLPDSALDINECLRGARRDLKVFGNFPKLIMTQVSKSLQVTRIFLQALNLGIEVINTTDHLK

[3] = target: T3, human GPC3 C-terminal fragment, amino …; experiment: FACS on 293S cells expressing the C-terminal fragment of GPC3
Excerpt: C-terminal truncation constructs of human GPC3 were made to further refine the epitopes for antibodies 7H1 and 4G7. […] The three C-terminal truncations each comprised the GPC N-terminal signal sequence (SS) and C-terminal glycophosphatidylinositol anchor (GPI link). […] See FIG. 7 (Santa Cruz Biotechnology antibody 1G12, which was raised to amino acids 511-580 of human GPC3, was used as a positive control for C-terminal fragment binding). Antibody 7H1 was reformatted as a chimeric antibody with human A118C cysteine-engineered IgG1 and Igκ constant regions (SEQ ID NOs: 42 and 43).

[4] = target: T7, human GPC3 N-terminal fragment, amino acids 25 to 358, with GPI link (human, UniProt P51654 25-358); experiment: Western blot probed with 7H1, lysate of stably transfected cells
T7 construct: not shown: C-terminal glycophosphatidylinositol anchor (GPI link)
T7 sequence (P51654 25-358): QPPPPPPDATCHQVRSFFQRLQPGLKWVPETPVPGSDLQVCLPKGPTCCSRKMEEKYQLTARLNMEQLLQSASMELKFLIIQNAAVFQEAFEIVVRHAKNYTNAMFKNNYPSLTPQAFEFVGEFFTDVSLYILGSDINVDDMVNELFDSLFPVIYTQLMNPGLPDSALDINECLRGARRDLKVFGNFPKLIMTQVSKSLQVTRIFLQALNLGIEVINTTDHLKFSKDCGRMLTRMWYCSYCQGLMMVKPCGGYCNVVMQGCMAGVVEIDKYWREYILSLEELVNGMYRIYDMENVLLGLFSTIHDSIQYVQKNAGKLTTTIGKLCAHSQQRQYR

huGPC(aa359-470) = target: T4, huGPC(aa359-470); experiment: FACS on 293 cells expressing the gD-tagged fragment
Protocol: as §1

Binder | binding result (huGPC(aa359-559)) | binding result (huGPC(aa359-509)) | binding result [1] | binding result [2] | binding result [3] | binding result [4] | binding result (huGPC(aa359-470))
B1 | binds | binds |  |  |  |  | 
B2 |  |  | binds | binds | no binding | binds | 
B3 |  |  |  |  | no binding |  | 
B4 | binds | binds |  |  |  |  | binds
